Measured values: patent US8551742B2 (priority 2007, dated 2013)
Changes are numbered by the printed parent chain.

Legend:
MetK [1] = assay: MetK mutants radioactive assay in vitro ([methyl-14C]methionine to SAMe); format: biochemical, E. coli; settings: 5 minute reaction time; C-terminal His tagged proteins unless untagged
Description: The metK gene from E. coli (Accession number AP—003499 or BAE77005) was cloned and overexpressed with either an N-terminal or a C-terminal His tag in pET28b vector. Site directed mutagenesis was performed using the C-terminal His tagged metK clone to generate the desired mutants. Expression of the mutant MetK proteins was confirmed.
The MetK mutants were purified (using the C-terminal His tag) and assayed in vitro. The wild type C-terminal His-tagged MetK protein was used as a control. The mutants were assayed using a radioactive assay. The assay conditions were as follows: • Assay Mix: • 1.0 mL 0.5 M HEPES/KOH, pH 8.0 • 0.5 mL 1.0 M KCl • 0.2 mL 1.0 M MgCl2 • 1.0 mL 100 mM ATP (disodium salt, pH 8.0 with KOH) • 0.1 mL 50 mM methionine • 0.1 mL NEN [methyl-^14C]methionine • 6.6 mL H2O • 25 mM EDTA pH 8.0 stop for assays.
45 μl of assay mix was added to an Eppendorf tube and 5 μL of enzyme (normalized data shown in Table 13. The reaction was incubated at room temperature (or 25° C.) for a desired period (1 to 10 minutes). The reaction was stopped with the addition of 150 μL of 25 mM EDTA. 100 μL of the reaction was spotted onto a 2.5 cm diameter Whatman P-81 phosphocellulose filter circle (labeled in pencil). The filters were washed with 3 L of distilled water, air-dried and placed in scintillation vials with aquasol. The emissions were counted using a window that extends from ^14C to about 0. Assay efficiency and quench levels were determined by adding a known amount of counts of pure ^14C-SAM and processing through the whole procedure. Backgrounds are typically<100 cpm (total counts ca. 10^5 cpm per reaction).

MetK [2] = settings: literature reference; cited from earlier work
MetA = assay: In-vitro characterization of purified mutant and wild type MetA enzymes (assay of Lawrence, modified); format: biochemical, E. coli
Description: PCR was used to amplify and then clone the five metA mutant genes identified as pCL-A#10, pCL-A#11, pCL-A#32, pCL-A#37, and pCL-A#41, into the pET30a vector. All constructs were subjected to DNA sequence analysis to confirm the presence of mutations. The genes were cloned with a C-terminus His tag for enzyme purification. The enzymes were overexpressed, purified and the activity was measured in the presence of different levels of methionine and SAMe, as described by Lawrence, J. Bacteriol., 109:8-11, 1972. The only modifications to the assay were that multiple points were taken and that the reaction was quenched with guanidine.

O-succinylsulfhydrylase = biological target: T1, O-succinylsulfhydrylase (Pseudomonas aeruginosa, UniProt P55218); assay: In-vitro assays of O-succinylsulfhydrylase; format: biochemical
T1 sequence (P55218 whole entry, looked up): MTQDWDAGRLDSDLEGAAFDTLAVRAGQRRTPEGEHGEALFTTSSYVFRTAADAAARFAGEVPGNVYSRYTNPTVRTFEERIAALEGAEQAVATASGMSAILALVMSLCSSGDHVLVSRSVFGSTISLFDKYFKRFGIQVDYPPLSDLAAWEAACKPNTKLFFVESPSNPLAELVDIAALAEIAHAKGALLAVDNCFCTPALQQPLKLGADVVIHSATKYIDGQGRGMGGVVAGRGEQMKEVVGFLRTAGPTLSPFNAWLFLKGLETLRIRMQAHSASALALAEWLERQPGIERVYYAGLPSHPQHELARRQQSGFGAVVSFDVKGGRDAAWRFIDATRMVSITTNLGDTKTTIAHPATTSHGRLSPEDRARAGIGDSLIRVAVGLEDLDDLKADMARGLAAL
Description: Low methionine production of the deletion mutants transformed with metZ may be due to the limitation of sulfide in the intracellular fraction (methods of increasing sulfide concentration are provided below). This is supported by the finding that the growth of the metBC deletion strain transformed with metZ was enhanced in M9 media in the presence of 2 mM sodium sulfide. […] Through directed evolution, it is possible to develop improved O-succinylsulfhydrylases with higher sulfide affinity and also higher activity.

[3] = control (no Met or SAM), U = formation of 1 μmole of CoA per minute at room temperature

B1: Gly 77 Val (protein, UniProt P0A817 2-384, looked up, variant G77V)
S-adenosylmethionine synthase: AKHLFTSESVSEGHPDKIADQISDAVLDAILEQDPKARVACETYVKTGMVLVGGEITTSAWVDIEEITRNTVREIVYVHSDMGFDANSCAVLSAIGKQSPDINQGVDRADPLEQGAGDQGLMFGYATNETDVLMPAPITYAHRLVQRQAEVRKNGTLPWLRPDAKSQVTFQYDDGKIVGIDAVVLSTQHSEEIDQKSLQEAVMEEIIKPILPAEWLTSATKFFINPTGRFVIGGPMGDCGLTGRKIIVDTYGGMARHGGGAFSGKDPSKVDRSAAYAARYVAKNIVAAGLADRCEIQVSYAIGVAEPTSIMVETFGTEKVPSEQLTLLVREFFDLRPYGLIQMLDLLHPIYKETAAYGHFGREHFPWEKTDKAQLLRDAAGLK
Activity (CPM SAMe/ μg purified protein/min) (MetK [1]): 6.9 CPM SAMe/ μg purified protein/min

B2: Asp 238 Asn (protein, UniProt P0A817 2-384, looked up, variant D238N)
S-adenosylmethionine synthase: B1 S-adenosylmethionine synthase with V76G, D238N
Activity (CPM SAMe/ μg purified protein/min) (MetK [1]): 1.9 CPM SAMe/ μg purified protein/min | Expected Effect on SAMe synth: kcat reduction (MetK [2]): kcat reduction of ~ 103 fold

B3: Lys 245 Met (protein, UniProt P0A817 2-384, looked up, variant K245M)
S-adenosylmethionine synthase: B1 S-adenosylmethionine synthase with V76G, K245M
Activity (CPM SAMe/ μg purified protein/min) (MetK [1]): 2.5 CPM SAMe/ μg purified protein/min | Expected Effect on SAMe synth: activity reduced / lower activity than WT (MetK [2]): 42,000 fold

B4: Asp 118 Asn (protein, UniProt P0A817 2-384, looked up, variant D118N)
S-adenosylmethionine synthase: B1 S-adenosylmethionine synthase with V76G, D118N
Activity (CPM SAMe/ μg purified protein/min) (MetK [1]): 1.3 CPM SAMe/ μg purified protein/min | Expected Effect on SAMe synth: kcat reduction (MetK [2]): kcat reduction of ~ 103 fold

B5: Asp 271 Ala (protein, UniProt P0A817 2-384, looked up, variant D271A)
S-adenosylmethionine synthase: B1 S-adenosylmethionine synthase with V76G, D271A
Activity (CPM SAMe/ μg purified protein/min) (MetK [1]): 0.4 (not duplicated) CPM SAMe/ μg purified protein/min | Expected Effect on SAMe synth: kcat reduction (MetK [2]): kcat reduction of ~ 103 fold

B6: Asp 16 Asn (protein, UniProt P0A817 2-384, looked up, variant D16N)
S-adenosylmethionine synthase: B1 S-adenosylmethionine synthase with D16N, V76G
Activity (CPM SAMe/ μg purified protein/min) (MetK [1]): 2.5 CPM SAMe/ μg purified protein/min | Expected Effect on SAMe synth: kcat reduction (MetK [2]): kcat reduction of ~ 103 fold

B7: His 14 Asn (protein, UniProt P0A817 2-384, looked up, variant H14N)
S-adenosylmethionine synthase: B1 S-adenosylmethionine synthase with H14N, V76G
Activity (CPM SAMe/ μg purified protein/min) (MetK [1]): 7.7 CPM SAMe/ μg purified protein/min | Expected Effect on SAMe synth: activity reduced / lower activity than WT (MetK [2]): Activity reduced ~ 104 fold

B8: Cys 90 Ser (protein, UniProt P0A817 2-384, looked up, variant C90S)
S-adenosylmethionine synthase: B1 S-adenosylmethionine synthase with V76G, C89S
Activity (CPM SAMe/ μg purified protein/min) (MetK [1]): 23.2 CPM SAMe/ μg purified protein/min | Expected Effect on SAMe synth: % of WT activity (MetK [2]): Only 10% of WT

B9: WT Untagged: untagged wild type MetK protein, Markham lab (protein, UniProt P0A817 2-384, looked up)
S-adenosylmethionine synthase: B1 S-adenosylmethionine synthase with V76G
Activity (CPM SAMe/ μg purified protein/min) (MetK [1]): 5600 CPM SAMe/ μg purified protein/min

B10: Cys 90 Ala (protein, UniProt P0A817 2-384, looked up, variant C90A)
S-adenosylmethionine synthase: B1 S-adenosylmethionine synthase with V76G, C89A
Activity (CPM SAMe/ μg purified protein/min) (MetK [1]): Same as WT | Expected Effect on SAMe synth: % of WT activity (MetK [2]): Only 10% of WT

B11: WT control: wild type C-terminal His-tagged MetK protein used as a control (protein, UniProt P0A817 2-384, looked up)
S-adenosylmethionine synthase: B1 S-adenosylmethionine synthase with V76G
modifications: C-terminal His tag
Activity (CPM SAMe/ μg purified protein/min) (MetK [1]): 995.4 CPM SAMe/ μg purified protein/min

B12: w.t.: wild type E. coli MetA enzyme (homoserine succinyltransferase), C-terminus His tag, purified (protein, UniProt P07623 2-309, looked up)
Homoserine …: PIRVPDELPAVNFLREENVFVMTTSRASGQEIRPLKVLILNLMPKKIETENQFLRLLSNSPLQVDIQLLRIDSRESRNTPAEHLNNFYCNFEDIQDQNFDGLIVTGAPLGLVEFNDVAYWPQIKQVLEWSKDHVTSTLFVCWAVQAALNILYGIPKQTRTEKLSGVYEHHILHPHALLTRGFDDSFLAPHSRYADFPAALIRDYTDLEILAETEEGDAYLFASKDKRIAFVTGHPEYDAQTLAQEFFRDVEAGLDPDVPYNYFPHNDPQNTPRASWRSHGNLLFTNWLNYYVYQITPYDLRHMNPTLD
modifications: C-terminal His tag
notes: wild type E. coli MetA enzyme (homoserine succinyltransferase), C-terminus His tag, purified
% of specific activity retention (MetA; control): 100% | Specific activity (U/mg) (MetA; [3]): 386 U/mg | % of specific activity retention (MetA; w/10 mM SAM): 2.9% | Specific activity (U/mg) (MetA; w/10 mM SAM): 11 U/mg | % of specific activity retention (MetA; w/ 100 mM Met): 7.6% | Specific activity (U/mg) (MetA; w/ 100 mM Met): 29 U/mg

B13: #11 (protein, listed as Escherichia coli)
chain: MPIRVPDELPAVNFLREENVFVMTTSRAPGQEIRPLKVLILNLMPKKIETENQFLRLLSNSPLQVDIQLLRIDSRESRNTPAEHLNNFYCNFEDIQDQNFDGLIVTGAPLGLVGFNDVAYWPQIKQVLEWSKDHVTSTLSVCWAVQAALNILYGIPKQTRTEKLSGVYEHHILHPHALLTRGFDDSFLAPHSRYADFPAALIRDYTDLEILAETEEGDAYLFASKDKRIAFVTGHPEYDAQTLAQEFFRDVEAGLDPDVPYNYFPHNDPQNTPRASWRSHGNLLFTNWLNYYVYQITPYDLRHMNPTLD
% of specific activity retention (MetA; control): 100% | Specific activity (U/mg) (MetA; [3]): 479 U/mg | feed-back inhibition resistance compared to the wild type enzyme (MetA; methionine and SAM inhibition): most resistant | % of specific activity retention (MetA; w/10 mM SAM): 82% | Specific activity (U/mg) (MetA; w/10 mM SAM): 395 U/mg | % of specific activity retention (MetA; w/ 100 mM Met): 94% | Specific activity (U/mg) (MetA; w/ 100 mM Met): 451 U/mg | % of specific activity retention (MetA; w/ 300 mM Met): 56% | Specific activity (U/mg) (MetA; w/ 300 mM Met): 282 U/mg | % of specific activity retention (MetA; w/ 300 mM Met, listed as metA #11): 55%

B14: O-succinylsulfhydrylase: O-succinylsulfhydrylase (EC 4.2.99.-) codified by metZ from Pseudomonas aeruginosa (protein, UniProt P55218 1-403, looked up)
O-succinylhomoserine …: T1 sequence (P55218 whole entry, looked up)
sulfide affinity (O-succinylsulfhydrylase): low sulfide affinity
